Experimental data reported in paper PMC4005696, “Type III restriction endonucleases are heterotrimeric: comprising one helicase–nuclease subunit and a dimeric methyltransferase that binds only one specific DNA” (Nucleic Acids Research, 2014).

Experiments:
[1] = target: EcoPI holoenzyme (Res1Mod2) (Escherichia coli, UniProt P08764;P08763 1-970;1-646); assay: SEC-MALS; 10 mM Mg2+, no ATP; 1:1 Res1Mod2:DNA; SEC-MALS: 50 mM Tris-HCl pH 8.0, 50 mM KCl, 10 mM MgCl2, 1 mM DTT, 0.1 mg/ml BSA (Standard Assay Buffer), 20 C; native MS: volatile ammonium acetate buffer, enzyme:DNA 1:2; settings: protein: recombinant; tags: none; copies: 1;2; label: 5'-Hex (12C linker) on top strand
[2] = target: the molecule itself; assay: native MS; wt EcoP15I 5 µM with 10 µM 50-mer DNA (1:2), 2 mM magnesium acetate (4 mM MgOAc and 2 mM ATP where ATP was added), buffer-exchanged into 100 mM ammonium acetate; Synapt G2 HDMS
[3] = target: T1, EcoP15I Res subunit with C-terminal Avi-tag, biotinylated (Escherichia coli, UniProt Q5ZND2 1-970, biotin on the Avi-tag (co-expressed biotin ligase)); assay: native MS; enzyme only, 10 µM, dialysed against 100 mM ammonium acetate pH 7.0; Q-TOF II modified for high-mass operation; settings: both partners purified
T1 construct: Res subunit of the Type III restriction endonuclease EcoP15I, Escherichia coli; also called biotinylated EcoP15I; bio-EcoP15I; not shown: Avi-tag, C-terminal, kept
T1 sequence (looked up): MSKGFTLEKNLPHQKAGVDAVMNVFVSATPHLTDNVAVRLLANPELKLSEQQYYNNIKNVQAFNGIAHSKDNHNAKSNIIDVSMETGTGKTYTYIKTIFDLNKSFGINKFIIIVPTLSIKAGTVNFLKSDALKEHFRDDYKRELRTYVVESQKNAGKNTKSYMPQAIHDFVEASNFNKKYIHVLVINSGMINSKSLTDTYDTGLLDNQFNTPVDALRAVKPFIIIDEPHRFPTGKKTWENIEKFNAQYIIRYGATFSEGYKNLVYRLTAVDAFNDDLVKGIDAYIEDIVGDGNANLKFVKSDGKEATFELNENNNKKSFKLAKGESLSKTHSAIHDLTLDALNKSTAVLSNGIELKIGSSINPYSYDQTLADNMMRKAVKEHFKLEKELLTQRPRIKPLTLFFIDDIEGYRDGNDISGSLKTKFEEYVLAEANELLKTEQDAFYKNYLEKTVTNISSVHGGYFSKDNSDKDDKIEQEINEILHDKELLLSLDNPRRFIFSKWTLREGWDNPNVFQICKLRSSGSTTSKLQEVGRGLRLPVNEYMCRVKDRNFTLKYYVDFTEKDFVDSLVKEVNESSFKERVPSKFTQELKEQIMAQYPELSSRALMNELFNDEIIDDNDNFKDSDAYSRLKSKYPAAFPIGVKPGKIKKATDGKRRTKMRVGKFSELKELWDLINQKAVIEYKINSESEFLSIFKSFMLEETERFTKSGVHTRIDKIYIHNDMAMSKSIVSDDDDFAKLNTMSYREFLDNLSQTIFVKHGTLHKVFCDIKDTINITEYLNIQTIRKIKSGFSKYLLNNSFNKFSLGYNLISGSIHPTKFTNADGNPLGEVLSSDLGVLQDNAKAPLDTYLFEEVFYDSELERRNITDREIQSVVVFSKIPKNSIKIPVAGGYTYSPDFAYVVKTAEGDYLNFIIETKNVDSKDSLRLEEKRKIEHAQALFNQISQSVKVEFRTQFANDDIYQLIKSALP

[4] = target: T2, EcoP15I Res subunit (wild type, untagged) (Escherichia coli, UniProt Q5ZND2 1-970); assay: as above; settings: both partners purified
T2 construct: Res (restriction) subunit of the Type III restriction endonuclease EcoP15I, Escherichia coli; Made only together with Mod from the natural operon; also called wt EcoP15I
T2 sequence (looked up): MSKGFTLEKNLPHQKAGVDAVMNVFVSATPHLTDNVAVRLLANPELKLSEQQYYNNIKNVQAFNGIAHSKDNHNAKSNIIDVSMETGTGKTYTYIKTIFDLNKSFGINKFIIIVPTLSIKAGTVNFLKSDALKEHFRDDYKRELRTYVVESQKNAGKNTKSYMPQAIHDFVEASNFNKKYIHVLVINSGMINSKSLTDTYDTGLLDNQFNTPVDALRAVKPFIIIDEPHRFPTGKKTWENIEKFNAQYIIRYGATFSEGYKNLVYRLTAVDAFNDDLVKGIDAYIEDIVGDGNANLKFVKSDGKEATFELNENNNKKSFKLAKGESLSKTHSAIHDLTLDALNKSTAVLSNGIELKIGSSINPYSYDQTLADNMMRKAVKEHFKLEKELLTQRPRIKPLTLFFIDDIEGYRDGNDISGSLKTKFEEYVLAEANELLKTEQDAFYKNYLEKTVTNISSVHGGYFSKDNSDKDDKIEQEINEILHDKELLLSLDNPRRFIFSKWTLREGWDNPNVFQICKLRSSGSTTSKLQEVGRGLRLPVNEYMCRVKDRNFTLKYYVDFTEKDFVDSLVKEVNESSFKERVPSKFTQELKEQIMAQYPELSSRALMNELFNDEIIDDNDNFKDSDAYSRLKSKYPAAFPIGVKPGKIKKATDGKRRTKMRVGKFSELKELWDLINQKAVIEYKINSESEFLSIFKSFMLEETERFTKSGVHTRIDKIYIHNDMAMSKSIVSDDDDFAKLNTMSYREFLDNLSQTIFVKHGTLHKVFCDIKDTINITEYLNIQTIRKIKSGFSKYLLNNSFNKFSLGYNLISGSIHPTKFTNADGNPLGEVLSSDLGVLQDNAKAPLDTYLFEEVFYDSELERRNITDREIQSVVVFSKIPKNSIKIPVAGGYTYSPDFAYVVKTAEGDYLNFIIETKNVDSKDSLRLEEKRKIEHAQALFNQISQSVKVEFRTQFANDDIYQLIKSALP

[5] = target: T3, EcoP15I Res subunit R534A (Escherichia coli, UniProt Q5ZND2 1-970, R534A); assay: SEC-MALS; 0.5–1.0 mg/ml (1.25–2.5 µM) enzyme, Superdex 200, Standard Assay Buffer minus BSA (50 mM Tris–HCl pH 8.0, 50 mM KCl, 10 mM MgCl2, 1 mM DTT), room temperature; enzyme alone or with excess Hex-labelled specific 50-mer DNA, with or without 1 mM ATP; settings: both partners purified
T3 construct: Res subunit of the Type III restriction endonuclease EcoP15I, Escherichia coli; mutated in Motif VI of the helicase, lacks ATPase activity; also called R534A EcoP15I; R534A P15I; source: purified identically to the wild-type (DEAE-Sepharose, heparin, Superdex 200), co-purified with Mod
T3 sequence (looked up): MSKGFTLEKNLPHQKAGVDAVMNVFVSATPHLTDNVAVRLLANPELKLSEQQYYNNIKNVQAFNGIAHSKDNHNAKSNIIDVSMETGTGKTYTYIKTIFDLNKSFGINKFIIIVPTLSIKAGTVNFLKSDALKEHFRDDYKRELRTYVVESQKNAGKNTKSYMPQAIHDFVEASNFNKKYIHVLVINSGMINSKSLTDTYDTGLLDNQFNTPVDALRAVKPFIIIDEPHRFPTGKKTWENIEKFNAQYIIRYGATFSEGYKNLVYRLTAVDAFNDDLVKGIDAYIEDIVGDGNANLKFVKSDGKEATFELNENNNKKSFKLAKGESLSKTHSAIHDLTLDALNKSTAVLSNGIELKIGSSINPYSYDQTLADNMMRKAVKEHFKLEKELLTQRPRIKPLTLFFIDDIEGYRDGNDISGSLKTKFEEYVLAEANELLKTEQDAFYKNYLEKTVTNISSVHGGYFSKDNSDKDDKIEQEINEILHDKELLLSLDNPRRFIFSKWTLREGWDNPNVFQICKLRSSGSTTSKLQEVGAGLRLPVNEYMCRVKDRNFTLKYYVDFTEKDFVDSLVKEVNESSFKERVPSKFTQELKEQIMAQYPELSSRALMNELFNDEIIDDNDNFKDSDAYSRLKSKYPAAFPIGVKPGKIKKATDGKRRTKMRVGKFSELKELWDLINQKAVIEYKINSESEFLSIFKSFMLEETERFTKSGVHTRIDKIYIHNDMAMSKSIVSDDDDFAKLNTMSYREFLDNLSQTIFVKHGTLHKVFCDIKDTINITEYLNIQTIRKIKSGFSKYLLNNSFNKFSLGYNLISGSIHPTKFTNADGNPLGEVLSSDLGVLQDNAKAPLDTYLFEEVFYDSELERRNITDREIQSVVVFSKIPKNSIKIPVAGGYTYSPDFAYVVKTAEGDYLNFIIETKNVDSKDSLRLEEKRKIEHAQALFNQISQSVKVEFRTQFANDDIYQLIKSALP

[6] = target: T4, EcoP15I Res subunit (commercial enzyme from New England Biolabs) (Escherichia coli, UniProt Q5ZND2 1-970); assay: as above; settings: both partners purified
T4 construct: Res subunit of the Type III restriction endonuclease EcoP15I, Escherichia coli; also called EcoP15I NEB; commercially available EcoP15I; source: bought: NEB (catalogue no. R0646S)
T4 sequence (looked up): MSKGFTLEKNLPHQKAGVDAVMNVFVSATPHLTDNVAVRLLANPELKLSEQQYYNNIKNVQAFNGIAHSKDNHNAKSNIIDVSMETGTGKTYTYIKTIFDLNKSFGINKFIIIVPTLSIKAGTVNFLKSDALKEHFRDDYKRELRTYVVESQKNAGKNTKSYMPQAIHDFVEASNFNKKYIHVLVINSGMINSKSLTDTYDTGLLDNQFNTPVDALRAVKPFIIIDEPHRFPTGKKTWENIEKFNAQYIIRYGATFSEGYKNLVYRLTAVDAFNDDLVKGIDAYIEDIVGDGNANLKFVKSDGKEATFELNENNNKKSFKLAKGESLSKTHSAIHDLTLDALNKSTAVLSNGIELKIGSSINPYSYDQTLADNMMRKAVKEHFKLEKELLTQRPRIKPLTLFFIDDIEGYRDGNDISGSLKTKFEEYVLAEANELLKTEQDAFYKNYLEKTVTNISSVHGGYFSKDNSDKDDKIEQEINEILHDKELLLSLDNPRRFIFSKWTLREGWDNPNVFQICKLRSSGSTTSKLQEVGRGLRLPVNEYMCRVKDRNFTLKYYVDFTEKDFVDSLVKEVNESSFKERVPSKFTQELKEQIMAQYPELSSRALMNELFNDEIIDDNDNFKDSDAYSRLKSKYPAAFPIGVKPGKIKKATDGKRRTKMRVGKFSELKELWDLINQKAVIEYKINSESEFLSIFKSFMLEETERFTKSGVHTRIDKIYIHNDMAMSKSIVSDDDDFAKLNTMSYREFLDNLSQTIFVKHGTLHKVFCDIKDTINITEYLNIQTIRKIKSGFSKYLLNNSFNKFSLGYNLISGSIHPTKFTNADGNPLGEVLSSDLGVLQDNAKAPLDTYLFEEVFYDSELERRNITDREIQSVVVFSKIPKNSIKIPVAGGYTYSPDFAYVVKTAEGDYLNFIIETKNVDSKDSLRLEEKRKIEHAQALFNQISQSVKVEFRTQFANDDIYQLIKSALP

EcoPI holoenzyme (Res1Mod2), sequence (P08764 whole entry, one chain of several): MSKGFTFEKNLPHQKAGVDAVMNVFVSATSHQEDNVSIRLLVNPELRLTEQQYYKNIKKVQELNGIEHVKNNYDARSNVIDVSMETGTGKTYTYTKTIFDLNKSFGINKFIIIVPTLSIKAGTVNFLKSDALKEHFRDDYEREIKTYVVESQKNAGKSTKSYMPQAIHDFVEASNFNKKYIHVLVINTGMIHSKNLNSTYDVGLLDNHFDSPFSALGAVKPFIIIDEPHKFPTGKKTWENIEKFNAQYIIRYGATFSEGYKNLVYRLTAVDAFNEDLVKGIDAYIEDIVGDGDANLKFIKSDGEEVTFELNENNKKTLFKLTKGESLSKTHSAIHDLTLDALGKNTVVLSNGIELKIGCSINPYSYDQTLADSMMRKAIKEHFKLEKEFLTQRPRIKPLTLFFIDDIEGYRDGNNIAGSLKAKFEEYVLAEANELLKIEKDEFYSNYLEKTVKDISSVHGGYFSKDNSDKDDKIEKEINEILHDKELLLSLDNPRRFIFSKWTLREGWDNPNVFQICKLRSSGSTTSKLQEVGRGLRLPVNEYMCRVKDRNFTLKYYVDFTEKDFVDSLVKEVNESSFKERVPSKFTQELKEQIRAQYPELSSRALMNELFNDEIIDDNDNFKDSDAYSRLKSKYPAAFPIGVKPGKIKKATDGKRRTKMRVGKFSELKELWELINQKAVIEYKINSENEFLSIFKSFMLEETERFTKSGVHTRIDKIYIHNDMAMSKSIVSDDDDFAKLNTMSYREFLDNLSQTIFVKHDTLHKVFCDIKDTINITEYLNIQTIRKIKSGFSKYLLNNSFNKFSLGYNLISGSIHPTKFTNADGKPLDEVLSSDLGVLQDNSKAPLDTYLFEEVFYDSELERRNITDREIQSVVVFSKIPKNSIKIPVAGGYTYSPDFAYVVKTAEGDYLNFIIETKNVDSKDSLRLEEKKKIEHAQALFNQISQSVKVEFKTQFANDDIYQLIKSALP

B1: EcoPI specific 50-mer duplex (sDNA), Hex (dsDNA)
DNA 1: TGGCTTAGACCCAGCGCAGATACCAAAACTGTCCTTCTATTGACAATTCG
DNA 2: CGAATTGTCAATAGAAGGACAGTTTTGGTATCTGCGCTGGGTCTAAGCCA
[1]
  binding result: binds

B2: EcoP15I Mod subunit (untagged) (enzyme, Escherichia coli, UniProt P12364 1-644, looked up)
chain: MKKETIFSEVETANSKQLAVLKANFPQCFDKNGAFIQEKLLEIIRASEVELSKESYSLNWLGKSYARLLANLPPKTLLAEDKTHNQQEENKNSQHLLIKGDNLEVLKHMVNAYAEKVKMIYIDPPYNTGKDGFVYNDDRKFTPEQLSELAGIDLDEAKRILEFTTKGSSSHSAWLTFIYPRLYIARELMREDGTIFISIDHNEFSQLKLVCDEIFGEQNHVGDLVWKNATDNNPSNIAVEHEYIIVYTKNKEQLISEWKSNISDVKNLLVNIGEEFASKYTGNELQEKYTQWFREHRSELWPLDRYKYIDKDGIYTGSQSVHNPGKEGYRYDIIHPKTKKPCKQPLMGYRFPLDTMDRLLSEEKIIFGDDENKIIELKVYAKDYKQKLSSVIHLDGRVATNELKELFPEMTQPFTNAKTIKLVEDLISFACDGEGIVLDFFAGSGTTAHTVFNLNNKNKTSYQFITVQLDEPTKDKSDAMKHGYNTIFDLTKERLIRASKKNRDQGFKVYQLMPDFRAKDESELTLSNHTFFDDVVLTPEQYDTLLTTWCLYDGSLLTTPIEDVDLGGYKAHLCDGRLYLIAPNFTSEALKALLQKVDSDKDFAPNKVVFYGSNFESAKQMELNEALKSYANKKSIELDLVVRN
notes: Mod (modification) subunit of the Type III restriction endonuclease EcoP15I, Escherichia coli; also called Mod2 (as dimer); source: with biotinylated Res: avidin resin, Mono-Q
[2]
  stoichiometry N: 2
[3]
  stoichiometry N: 2 Mod per Res
[4]
  stoichiometry N: 2 Mod per Res
[5]
  binding result: binds

B3: EcoP15I Mod subunit (commercial enzyme from New England Biolabs) (enzyme, Escherichia coli, UniProt P12364 1-644, looked up)
chain: MKKETIFSEVETANSKQLAVLKANFPQCFDKNGAFIQEKLLEIIRASEVELSKESYSLNWLGKSYARLLANLPPKTLLAEDKTHNQQEENKNSQHLLIKGDNLEVLKHMVNAYAEKVKMIYIDPPYNTGKDGFVYNDDRKFTPEQLSELAGIDLDEAKRILEFTTKGSSSHSAWLTFIYPRLYIARELMREDGTIFISIDHNEFSQLKLVCDEIFGEQNHVGDLVWKNATDNNPSNIAVEHEYIIVYTKNKEQLISEWKSNISDVKNLLVNIGEEFASKYTGNELQEKYTQWFREHRSELWPLDRYKYIDKDGIYTGSQSVHNPGKEGYRYDIIHPKTKKPCKQPLMGYRFPLDTMDRLLSEEKIIFGDDENKIIELKVYAKDYKQKLSSVIHLDGRVATNELKELFPEMTQPFTNAKTIKLVEDLISFACDGEGIVLDFFAGSGTTAHTVFNLNNKNKTSYQFITVQLDEPTKDKSDAMKHGYNTIFDLTKERLIRASKKNRDQGFKVYQLMPDFRAKDESELTLSNHTFFDDVVLTPEQYDTLLTTWCLYDGSLLTTPIEDVDLGGYKAHLCDGRLYLIAPNFTSEALKALLQKVDSDKDFAPNKVVFYGSNFESAKQMELNEALKSYANKKSIELDLVVRN
notes: Mod subunit of the Type III restriction endonuclease EcoP15I, Escherichia coli; also called EcoP15I NEB; commercially available EcoP15I; source: bought: NEB (catalogue no. R0646S)
[6]
  stoichiometry N: 2 Mod per Res
